The record followed here is patent US20060068386A1, “Complete genome and protein sequence of the hyperthermophile methanopyrus kandleri av19 and monophyly of archael methanogens and methods of use thereof” (priority 2002, published 2006).

Where two headings read alike, the source gives them in different places.

In data set [1] the target is M.K. polB DNA polymerase (Methanopyrus kandleri, UniProt Q8TWJ5). Briefly: Effects of media components on M.K. polB DNA polymerase activity (primer extension). It counts as biochemical. How it is done:
(§1) DNA polymerase reaction mixtures (15-20 μl) contained dATP, dTTP, dCTP, and dGTP (1 mM each), 4.5 mM MgCl2, detergents Tween 20 and Nonidet P-40 (0.2% each), fixed concentrations of PTJ—duplex, other additions, as indicated, and appropriate amounts of polB in 30 mM Tris-HCl buffer pH 8.0 (25° C.). The background reaction mixtures contained all components except DNA polymerases. Primer extensions were carried out for a preset time at 75° C. in PTC-150 Minicycler (MJ Research, Inc.; Waltham, Mass.). 5 μl samples were removed and chilled to 4° C. followed by immediate addition of 20 μl of 20 mM EDTA. The samples were desalted by centrifugation through Sephadex G-50 spun columns, diluted, and analyzed on a ABI Prism 377 DNA sequencer (Applied BioSystems; Foster City, Calif.). For each sample, raw data were extracted from the sequencer trace files with the program Chromas 1.5 (Technelysium Pty Ltd., Australia), and the fluorescent signals were analyzed by our nonlinear regression data analysis programs written in Fortran. The programs applied Powell algorithms to approximate the signals by a number of Gaussian peaks and calculate integral fluorescent intensities for each product peak. The total amount of fluorescent products for each time of incubation was determined, and the initial rates of extension were calculated.
(§2) The next two tables (Table 4 and 5) display effects of various media components on M.K. polB DNA polymerase activity. Initial rates of primer extension reaction were measured as described by Pavlov et al., 2002.

Data set [2] relates to Mka PolB 3'-5' exonuclease activity. Kind of data set: Effect of salts on 3'-5' exonuclease activity of Mka PolB. In kind it is biochemical, Methanopyrus kandleri. How it is done: (§3) A 3′→5′ exonuclease activity of polB polymerase was measured at the same conditions as in the primer extension assay, except omitting dideoxynucleotides. A fluorescent primer:
Conclusions: • 1. KGlu inhibits the 3′-5′ exonuclease activity of Mka PolB, while NaCl stimulates it. • 2. KGlu, diphosphoglycerate, and Mka PCNA (see below) increase the polymerase activity of PolB. • 3.

For data set [3], the system named is polB DNA polymerase. Briefly: Thermostability of polB DNA polymerase in various media. It counts as biochemical, Methanopyrus kandleri. The following applies: 1 M Betaine, potassium glutamate, 100° C. The protocol:
To determine DNA polymerase activity and thermostability of DNA polymerase polB in various media. Proteins in 25 μl of 20 mM Tris-HCl buffer (pH 8.0 at 25° C.) containing indicated concentrations of salts and betaine were incubated in PTC-150 Minicycler (MJ Research) at 95° C. or 100° C. 4 μl samples were removed at defined times of incubation and assayed for primer extension activity.
The stabilizing effect of betaine is diminished in the presence of organic solvents DMSO and formamide.

Data set [4] deals with DNA duplex of FIG. 16 (PTJ). Briefly: Initial rates of primer extension reactions in salts (inhibition of polymerases and chimeras by NaCl, KCl, K-Glu). In kind it is biochemical. How it is done: The polymerase activities of the four chimeras were tested by measuring initial rates of primer extension reactions. The reactions were carried out at low concentrations of substrate, when the initial rates were proportional both to total protein and PTJ concentrations. When [PTJ] is much less than Kmapp, the initial rate is determined as in Equation 1: v1=kapp/Kmapp*[Et]*[PTJ]1 Eq. 1 • where Kmapp and kapp are apparent Michaelis and catalytic constants, respectively.
The concentrations of sodium chloride (NaCl), potassium chloride (KCl) and potassium glutamate (K-Glu) were varied to assess inhibition of the Stoffel fragment and KlenTaq, and the four chimeras by salts, and to estimate the effects of the HhH domains.
Experimental values of initial polymerization rates were analyzed by nonlinear regression analysis using Equation 2: [formula] where v and v0 are initial primer extension rates with and without salt, respectively, Ki is the apparent inhibition constant; and α is the cooperativity parameter.
In Table 2, to take into account the activation of Pfu polymerase and the PfuC2 hybrid by KGlu (data entries marked with an asterisk (*), the experimental values of initial polymerization rates were analyzed by nonlinear regression using the Equation 3: [formula]
where v and v0 are initial primer extension rates with and without salt, respectively; Ki is an apparent inhibition constant, α is a parameter of cooperativity, β and γ are parameters of activation. Since γ≅2, it is likely that two ions of Glu^− bind to the Pfu polymerase catalytic domain without inhibiting the polymerase activity.

In data set [5] the test system is fluorescent duplex substrate containing a primer-template junction (PTJ). Briefly: Primer extension assay of PolB DNA polymerase activity. It counts as biochemical. How it is done: A primer extension assay was applied with a fluorescent duplex substrate containing a primer-template junction (PTJ). The duplex shown in FIG. 18 was prepared by annealing a 5′-end labeled with fluorescein 20-nt long primer with a 40-nt long template:
as §1, §2
Table 6 illustrates the dependency of initial rates of primer extension for Duplex 2 shown in FIG. 17 on temperature of the reaction. Initial rates of primer extension reaction were measured as described by Pavlov et al., 2002.

For data set [6], the system named is fluorescent primer *FL-GTAATACGACTCACTATAGGG
Briefly: 3'→5' exonuclease activity of polB. It counts as biochemical. The protocol: as §3
was incubated with the enzyme at defined times. Then, the amounts of formed products were calculated, and the initial rates of hydrolysis were found, as in case of primer extension. It is interesting that polB was able to cleave off only 9 nucleotides of the primer, that is, the […] primer was the shortest substrate that polB could process.

For data set [7], the system named is fluorescent duplex substrate containing a primer-template junction (PTJ). Briefly: Primer extension assay of PolB DNA polymerase activity. In kind it is biochemical. This is another data set of the same source.
The target of data set [8] is T1, M. kandleri AV19 PCNA (MK1030), DNA polymerase sliding clamp.
T1 chain: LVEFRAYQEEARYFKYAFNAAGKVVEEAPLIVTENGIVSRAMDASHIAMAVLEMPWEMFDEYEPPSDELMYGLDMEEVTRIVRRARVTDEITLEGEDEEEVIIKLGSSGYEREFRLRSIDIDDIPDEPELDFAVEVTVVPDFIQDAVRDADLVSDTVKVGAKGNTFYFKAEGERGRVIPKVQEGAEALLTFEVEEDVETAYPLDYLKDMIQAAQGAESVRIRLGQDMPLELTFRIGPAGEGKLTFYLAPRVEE

Chain of M.K. polB DNA polymerase (Q8TWJ5 entry or part of it): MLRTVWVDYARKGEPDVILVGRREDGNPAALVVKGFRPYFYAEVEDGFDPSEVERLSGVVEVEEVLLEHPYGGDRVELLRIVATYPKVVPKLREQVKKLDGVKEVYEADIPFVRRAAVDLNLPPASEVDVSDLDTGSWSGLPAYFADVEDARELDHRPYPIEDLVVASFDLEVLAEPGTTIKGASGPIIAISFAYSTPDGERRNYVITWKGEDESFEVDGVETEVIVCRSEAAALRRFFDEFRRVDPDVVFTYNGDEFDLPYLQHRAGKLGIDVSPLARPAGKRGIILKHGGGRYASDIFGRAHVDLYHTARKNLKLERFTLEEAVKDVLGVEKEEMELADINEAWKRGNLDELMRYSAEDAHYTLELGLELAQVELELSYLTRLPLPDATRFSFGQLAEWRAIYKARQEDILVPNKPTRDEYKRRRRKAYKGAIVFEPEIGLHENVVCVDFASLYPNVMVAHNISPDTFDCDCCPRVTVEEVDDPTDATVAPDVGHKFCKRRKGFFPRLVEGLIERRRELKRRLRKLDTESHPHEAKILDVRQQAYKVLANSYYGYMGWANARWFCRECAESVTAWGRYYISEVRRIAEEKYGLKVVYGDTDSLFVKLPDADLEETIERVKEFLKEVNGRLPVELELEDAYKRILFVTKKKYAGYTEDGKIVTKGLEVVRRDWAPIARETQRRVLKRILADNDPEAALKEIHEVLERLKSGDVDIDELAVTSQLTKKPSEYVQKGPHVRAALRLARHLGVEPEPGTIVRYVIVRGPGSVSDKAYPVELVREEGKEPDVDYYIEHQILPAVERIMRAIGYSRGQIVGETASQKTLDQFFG

For the molecule `N` [NH4OH], in data set [1] (M.K. polB DNA polymerase activity, primer extension, read-out: IC50 (Inhibition constants in different media)), the IC50 is below 30 mM.

Take `O=C(O)[C@@H](COP(=O)(O)O)OP(=O)(O)O` [diphosphoglycerate]: the “effect on polymerase activity of PolB” value in data set [1] was “increase”.

For `[Cl-].[Na+]` [NaCl, sodium chloride], the “effect on 3'-5' exonuclease activity of Mka PolB” value in data set [2] is “stimulates”.

On to `C[N+](C)(C)CC(=O)O` [Betaine], for which, in data set [3], the “effect on thermostability of polB DNA polymerase” value was “stabilize specifically polB DNA polymerase”.

On to “Taq Polymerase: DNA polymerase from Thermus aquaticus [reference compound]”, for which the “increase of Ki on substituting KCl with KGlu” value in data set [4] (KGlu versus KCl) is given as 4 fold. Besides, the “NaCl concentration at which 20% inhibition of primer extension reaction occurs” value in data set [4] (NaCl) is “about 90 mM”.

Turning to `N[C@@H](CCC(=O)[O-])C(=O)[O-].[K+].[K+]` [KGlu, potassium glutamate], the “effect on 3'-5' exonuclease activity of Mka PolB” value in data set [2] is on record as “inhibits”. In addition, the “effect on polymerase activity of PolB” value in data set [1] was “increase”. In data set [1] (0.8 M of the salt), the “increase of polymerase activity of polB” value is listed as “about twenty-fold”.

B1: M. kandleri AV19 DNA polymerase family B (Mka PolB) (MK1039) (protein)
chain: LLRTVWVDYARKGEPDVILVGRREDGNPAALVVKGFRPYFYAEVEDGFDPSEVERLSGVVEVEEVLLEHPYGGDRVELLRIVATYPKVVPKLREQVKKLDGVKEVYEADIPFVRRAAVDLNLPPASEVDVSDLDTGSWSGLPAYFADVEDARELDHRPYPIEDLVVASFDLEVLAEPGTTIKGASGPIIAISFAYSTPDGERRNYVITWKGEDESFEVDGVETEVIVCRSEAAALRRFFDEFRRVDPDVVFTYNGDEFDLPYLQHRAGKLGIDVSPLARPAGKRGIILKHGGGRYASDIFGRAHVDLYHTARKNLKLERFTLEEAVKDVLGVEKEEMELADINEAWKRGNLDELMRYSAEDAHYTLELGLELAQVELELSYLTRLPLPDATRFSFGQLAEWRAIYKARQEDILVPNKPTRDEYKRRRRKAYKGAIVFEPEIGLHENVVCVDFASLYPNVMVAHNISPDTFDCDCCPRVTVEEVDDPTDATVAPDVGHKFCKRRKGFFPRLVEGLIERRRELKRRLRKLDTESHPHEAKILDVRQQAYKVLANSYYGYMGWANARWFCRECAESVTAWGRYYISEVRRIAEEKYGLKVVYGDTDSLFVKLPDADLEETIERVKEFLKEVNGRLPVELELEDAYKRILFVTKKKYAGYTEDGKIVTKGLEVVRRDWAPIARETQRRVLKRILADNDPEAALKEIHEVLERLKSGDVDIDELAVTSQLTKKPSEYVQKGPHVRAALRLARHLGVEPEPGTIVRYVIVRGPGSVSDKAYPVELVREEGKEPDVDYYIEHQILPAVERIMRAIGYSRGQIVGETASQKTLDQFFG
For B1, in data set [5], the “use of dUTP for primer extensions” value is listed as “can use dUTP for primer extensions”. The “Initial Rate of Primer Extension” value in data set [5] (0.5 M NaCl) was 0.123 ± 0.003 µM/min; in data set [5] (0.5 M NaCl + PCNA) it was 0.214 ± 0.014 µM/min; in data set [5] (1 M DPG), 2.17 ± 0.16 µM/min; in data set [5] (1 M KGlu) it was 2.74 ± 0.18 µM/min; in data set [5] (1 M KGlu, dUTP) it was 1.82 ± 0.09 µM/min; in data set [5] (Duplex 2 (FIG. 17), 50 °C), 1.01 ± 0.06 µM/min. Moreover, the “Initial Rate of Primer Extension” value in data set [5] (Duplex 2 (FIG. 17), 55 °C) turned out to be 1.08 ± 0.09 µM/min; in data set [5] (Duplex 2 (FIG. 17), 60 °C) it was 1.12 ± 0.08 µM/min; in data set [5] (Duplex 2 (FIG. 17), 65 °C), 1.23 ± 0.05 µM/min; in data set [5] (Duplex 2 (FIG. 17), 70 °C), 1.01 ± 0.07 µM/min; in data set [5] (Duplex 2 (FIG. 17), 75 °C), 0.95 ± 0.07 µM/min; in data set [5] (Duplex 2 (FIG. 17), 80 °C) it was 0.92 ± 0.07 µM/min. Moreover, the “Initial Rate of Primer Extension” value in data set [5] (Duplex 2 (FIG. 17), 85 °C) was found to be 0.94 ± 0.07 µM/min; in data set [5] (Duplex 2 (FIG. 17), 90 °C) it was 0.71 ± 0.05 µM/min; in data set [5] (Duplex 2 (FIG. 17), 95 °C) it was 0.62 ± 0.04 µM/min; in data set [5] (Duplex 2 (FIG. 17), 100 °C) it was 0.62 ± 0.06 µM/min; in data set [5] (Duplex 2 (FIG. 17), 105 °C), 0.55 ± 0.09 µM/min. Besides, the “temperature up to which primers are extended” value in data set [5] (Duplex 2 (FIG. 17)) is “up to 105 °C”. Also, the “nucleotides of the primer cleaved off” value in data set [6] was 9 nucleotides. Moreover, the “shortest substrate that polB could process” value in data set [6] worked out at 13 nt. Also, the “resistance to aggressive chemicals” value in data set [7] is “resistant to aggressive chemicals”. The “hydrolysis of the primer annealed to the duplex (3'-5' exonuclease activity of polB)” value in data set [8] is on record as “suppression of hydrolysis of the primer annealed to the duplex”.

B2: Pfu polymerase: whole size Pfu polymerase (protein, UniProt P61875 1-775, looked up)
chain: MILDVDYITEEGKPVIRLFKKENGKFKIEHDRTFRPYIYALLRDDSKIEEVKKITGERHGKIVRIVDVEKVEKKFLGKPITVWKLYLEHPQDVPTIREKVREHPAVVDIFEYDIPFAKRYLIDKGLIPMEGEEELKILAFDIETLYHEGEEFGKGPIIMISYADENEAKVITWKNIDLPYVEVVSSEREMIKRFLRIIREKDPDIIVTYNGDSFDFPYLAKRAEKLGIKLTIGRDGSEPKMQRIGDMTAVEVKGRIHFDLYHVITRTINLPTYTLEAVYEAIFGKPKEKVYADEIAKAWESGENLERVAKYSMEDAKATYELGKEFLPMEIQLSRLVGQPLWDVSRSSTGNLVEWFLLRKAYERNEVAPNKPSEEEYQRRLRESYTGGFVKEPEKGLWENIVYLDFRALYPSIIITHNVSPDTLNLEGCKNYDIAPQVGHKFCKDIPGFIPSLLGHLLEERQKIKTKMKETQDPIEKILLDYRQKAIKLLANSFYGYYGYAKARWYCKECAESVTAWGRKYIELVWKELEEKFGFKVLYIDTDGLYATIPGGESEEIKKKALEFVKYINSKLPGLLELEYEGFYKRGFFVTKKRYAVIDEEGKVITRGLEIVRRDWSEIAKETQARVLETILKHGDVEEAVRIVKEVIQKLANYEIPPEKLAIYEQITRPLHEYKAIGPHVAVAKKLAAKGVKIKPGMVIGYIVLRGDGPISNRAILAEEYDPKKHKYDAEYYIENQVLPAVLRILEGFGYRKEDLRYQKTRQVGLTSWLNIKKS
modifications: full-length
As for B2, the Ki in data set [4] (inhibition by KCl, read-out: Ki (KCl), apparent inhibition constant) was found to be 42.6 ± 1 mM; in data set [4] (inhibition by NaCl, nonlinear regression Eq. 2, read-out: Ki (NaCl), apparent inhibition constant), 51.5 ± 1 mM.

One may read the IC50 as the concentration at which inhibition is half-maximal.
